3 molecules from US9394371 can be followed below.

Assay [1] has as its target T1, AIP-4 (S. aureus IV native cyclic signaling peptide) (Staphylococcus aureus). Description: cell-based or functional assay.
For assay [2], the target named is T1, AIP-4 (S. aureus IV native cyclic …). Description: competition ELISA on AP4-BSA.
For assay [3] the target is unchanged. Description: competition ELISA on AP4-BSA. This is another data set of the same source. In general terms: An ELISA detects its analyte on a solid surface through an enzyme-linked reagent.
In assay [4] the target is T2, AIP-1 (S. aureus I native cyclic signaling peptide) (Staphylococcus aureus). Description: competition ELISA on AP4-BSA.
In assay [5] the target is T1, AIP-4 (S. aureus IV native cyclic …). Description: competition ELISA on AP4-BSA, tested 5 different times.
For assay [6], the target named is T2, AIP-1 (S. aureus I native cyclic …). Description: competition ELISA on AP1-BSA.

B1: AP4-24H11 (antibody, V domains shown)
VH: EVKPQESGPGLVKPSQSLSLTCTVTGYSITSNYAWNWIRQFPGNKLEWMGFISSYGTTTYNPSLKSRFSITRDTSKNQFFLQLHSVTIEDTGTYFCTREGDYWGQGTTLTVSS
VL: DIVMTQATLSLPVSLGDQASISCRSSQRLVPSNGNIYLHWFLQKPGQSPKLLIYKLSSRFSGVPDRFSGSGSGTDFTLKISRVESEDLGIYFCSQTTHVPYTFGGGTKLEIK
For the molecule B1, in assay [1], the Real-Time PCR fold-change of eta mRNA in RN4850 is -8.1 fold, the Real-Time PCR fold-change of hla mRNA in RN4850 is -5.2 fold, the Real-Time PCR fold-change of rnaIII mRNA in RN4850 is -77 fold and the Real-Time PCR fold-change of spa mRNA in RN4850 came to 5.7 fold. Besides, the rnaIII transcriptional level in S. aureus RN4850 during stationary growth phase (RT-PCR) in assay [1] was more than 50 fold. Also, the Kd in assay [2] worked out at 90 nM. In assay [3], the Kd was 98 nM. For the same molecule, the Kd in assay [4] came to 5 µM.

B2: AP4-29E10 (antibody, V domains shown)
VH: EVQLQQSGPELEKPGASVKISCKASGHSFTGYNMNWVKQSNDKSLEWIGNIAPYYGVTAYNQKFKGKATLTGDKSSSTAYMQLKSLASEDSAVYYCVLDTSGYASWGQGTLVTVSA
VL: DIVMTQATASLTVSLGQRATISCRASKSVSTSGYSYMHWYQQKPGQPPKLLIYLASNLESGVPARFSGSGSGTDFTLNIHPVEEEDAATYYCQHSREVPYTFGGGTKLELK
As for B2, the Kd in assay [5] was 2 to 110 nM; in assay [2] it was 24 nM; in assay [4], 3 µM.

B3: AP1-15B4 (antibody, V domains shown)
VH: EVHLVESGGDLVKPGGSLKLSCAASGFAFSDFAMSWVRQTPEKRLEWVAIIKSDDSYTYYPDSVRDRFTISRDNARNTLYLQMTSLRSEDTALYYCTKIYDAYFYAMDYWGQGTSVTVSS
VL: DIVRTQSPLSLSVSLGDQASISCRSSQSLLHSNGNTYLHWYLQKPGQSPKLLIYKVSNRFSGVPDRFSGSGSGTDFTLKISILEAEDLGIYFCSQSTHFPTFGGGTKLEIK
On to B3, for which the equilibrium dissociation constant (Kd) in assay [6] was found to be 800 nM.

A word on the Kd: it is a measure of binding affinity in units of concentration. The low end stands for higher affinity, the high end for lower affinity.
